Laboratory results as given in patent publication US20170037149A1 (Amgen, published 2017).

target: T1, human FLT3 (human, UniProt P36888 27-993); assay: FACS, scFv on CHO-human FLT3 pre-incubated with FLT3 ligand (competitor)
T1 construct: On transfected CHO cells, or on the FLT3 positive human AML cell lines EOL-1 / MV4-11 where the row says so; also called hu FLT3; full length human FLT3
Description: The detection was performed using mouse anti-FLAG+PE-conjugated goat anti-mouse and the Fluorescence median detected by FACS (median (+ligand)/median (w/o ligand)*100%)
Afterwards cells were not washed but directly stained with FLT3 binder (scFv's). […] As negative control, cells were incubated with an unspecific scFv instead of FLT3 scFv.
For the evaluation of the data, the fluorescence median was detected by FACS.

Binder	median [+ligand]/median [w/o ligand]*100 [%]
FL-7 scFv (scFv, periplasmic prep) scFv: QVTLKESGPTLVKPTETLTLTCTVSGFSLNNARMGVSWIRQPPGKALEWLAHIFSNDEKSYSTSLKNRLTISKDSSKTQVVLTMTNVDPVDTATYYCARIVGYGTGWFGYFDYWGQGTQVTVSSGGGGSGGGGSGGGGSDIQMTQSPSSLSASVGDRVTITCRASQDIRTDLAWYQQKPGKAPKRLIYAASSLQSGVPSRFSGSGSGTEFTLTISSLQPEDFATYYCLQHNRYPLTFGGGTKVDIK	≥ 75
FL-8 scFv (scFv, periplasmic prep) scFv: QVTLKESGPALVKPTETLTLTCTVSGFSLSYARMGVSWIRQPPGKALEWLAQIFSNDEKSYSTSLKSRLTISKGTSNSQVVLTMTNMDPEDTATYYCARIVGYGTGWYGFFDYWGQGILVTVSSGGGGSGGGGSGGGGSDIQMTQSPSSLSASVGDRVTITCRASQGIRNDLGWYQQKPGKAPKRLIYAASSLQSGVPSRFSGSGSGTEFTLTISSLQPEDFATYYCLQHNSYPLTFGGGTKVDIK	≥ 75
FL-17 scFv (scFv, periplasmic prep) scFv: QVTLKESGPTLVKPTETLTLTCTVSGFSLSNARMGVSWIRQPPGKALEWLANIFSNDEKSYSTSLKSRLTISKGTSKSQVVLTMTNVNPVDTGTYYCARIVGYGSGWYGYFDYWGQGTLVTVSSGGGGSGGGGSGGGGSDIQMTQSPSSLSASVGDRVTITCRASQDIRNDLGWYQQKPGKAPKRLIYATSIRQSGVPSRFTGSGSGTEFTLTISGLQPEDFATYFCLQHNSFPLTFGGGTKVEIK	≥ 75
FL-40 scFv (scFv, periplasmic prep) scFv: QVTLKESGPTLVKPTETLTLTCTVSGFSLSNARMGVSWIRQPPGKCLEWLANIFSNDEKSYSTSLKSRLTISKGTSKSQVVLTMTNVNPVDTGTYYCARIVGYGSGWYGYFDYWGQGTLVTVSSGGGGSGGGGSGGGGSDIQMTQSPSSLSASVGDRVTITCRASQDIRNDLGWYQQKPGKAPKRLIYATSIRQSGVPSRFTGSGSGTEFTLTISGLQPEDFATYFCLQHNSFPLTFGCGTKVEIK	≥ 75
FL-18 scFv (scFv, periplasmic prep) scFv: QVTLKESGPVLVKPTQTLTLTCTFSGFSLSNARMGVSWIRQPPGKALEWLAHIFSNDEKSFSTSLKNRLTISKDTSKSQVVLTMTNMDPVDTATYYCARMVGYGSGWYAYFDYWGQGTQVTVSSGGGGSGGGGSGGGGSDIQMTQSPSSLSASVGDRVTITCRASQSISSYLNWYQQKPGKAPKLLIYAASSLQSGVPSRFSGSGSGTDFTLTISSLQPEDFATYYCLQHNSYPLTFGGGTKVEIK	≥ 75
FL-41 scFv (scFv, periplasmic prep) scFv: QVTLKESGPVLVKPTQTLTLTCTFSGFSLSNARMGVSWIRQPPGKCLEWLAHIFSNDEKSFSTSLKNRLTISKDTSKSQVVLTMTNMDPVDTATYYCARMVGYGSGWYAYFDYWGQGTQVTVSSGGGGSGGGGSGGGGSDIQMTQSPSSLSASVGDRVTITCRASQSISSYLNWYQQKPGKAPKLLIYAASSLQSGVPSRFSGSGSGTDFTLTISSLQPEDFATYYCLQHNSYPLTFGCGTKVEIK	≥ 75
FL-19 scFv (scFv, periplasmic prep) scFv: QVTLKESGPTLVKPTETLTLTCTVSGFSLSYARMGVSWIRQPPGKALEWLAQIFSNDEKSYSTSLKSRLTISKDTSKSQVVLTMTDMDPEDTATYYCARIVGYGTGWYGYFDYWGQGTQVTVSSGGGGSGGGGSGGGGSDIQMTQSPSSLSASVGDRVTITCRASQDIGDDLGWYQQKPGKAPKRLIYAASTLQSGVPFRFSGSGSGTDFTLTISSLQPEDFATYYCLQHNSYPLTFGGGTKVEIK	≥ 75
FL-30 scFv (scFv, periplasmic prep) scFv: QVTLKESGPVLVKPTQTLTLTCTFSGFSLSNARMGVSWIRQPPGKALEWLALIYWNDDKRYSPSLKSRLTITKDTSKNQVVLTMTNMDPVDTATYYCARMVGYGSGWYAYFDYWGQGTLVTVSSGGGGSGGGGSGGGGSDIQMTQSPSSLSASVGDRVTITCRASQGIRNDLGWYQQKPGKAPKRLIYAASSLQSGVPSRFSGSGSGTEFTLTISSLQPEDFATYYCLQHNSYPLTFGGGTKVEIK	≥ 75
FL-31 scFv (scFv, periplasmic prep) scFv: QVTLKESGPALVKPTQTLTLTCTFSGFSLSNARMGVSWIRQPPGKALEWLAHIFSNDEKSYSTSLKSRLTISKDTSKSQVVLTMTDMDPEDTATYYCARIVGYGTGWYGFFDYWGQGILVTVSSGGGGSGGGGSGGGGSDIQMTQSPSSLSASVGDRVTITCRTSQGIRNDLGWYQQKPGKAPKRLIYAASSLQSGVPSRFSGSGSGTEFTLTISSLQPEDFATYYCLQHNSYPLTFGGGTKVEIK	≥ 75
FL-35 scFv (scFv, periplasmic prep) scFv: QVTLKESGPALVKPTETLTLTCTVSGFSLNNARMGVSWIRQPPGKALEWLAHIFSNDEKSYSTSLKNRLTISKDSSKTQVVLTMTNVDPVDTATYYCARIVGYGTGWYGFFDYWGQGTQVTVSSGGGGSGGGGSGGGGSDIQMTQSPSSLSASVGDRVTITCRASQDIRDDLVWYQQKPGKAPKRLIYGTSTLQSGVPSRFSGSGSGTEFTLTISSLQPEDFATYYCLQHHSYPLTFGGGTKLEIK	≥ 75
